In experiment [1] the target is T1, human CLDN18.2 (human).
T1 construct: also called hCLDN18.2; Claudin-18 splice variant 2
As to the kind of experiment: FACS, HEK293-CLDN18.2 cells. (In general: In flow cytometry, cells or beads pass a laser one at a time.)

Experiment [2] deals with human CLDN18.2-mRFP N37D (human). As to the kind of experiment: FACS, transfected HEK293, 10 µg/ml antibody.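 Further: antibody binding read by flow cytometry with a FITC-labelled anti-human IgG secondary, gated on RFP-positive cells, each mutant signal expressed against wild-type CLDN18.2.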
Sequence of human CLDN18.2-mRFP N37D (human) (chain, as listed by the source N37D N37D limits assumed): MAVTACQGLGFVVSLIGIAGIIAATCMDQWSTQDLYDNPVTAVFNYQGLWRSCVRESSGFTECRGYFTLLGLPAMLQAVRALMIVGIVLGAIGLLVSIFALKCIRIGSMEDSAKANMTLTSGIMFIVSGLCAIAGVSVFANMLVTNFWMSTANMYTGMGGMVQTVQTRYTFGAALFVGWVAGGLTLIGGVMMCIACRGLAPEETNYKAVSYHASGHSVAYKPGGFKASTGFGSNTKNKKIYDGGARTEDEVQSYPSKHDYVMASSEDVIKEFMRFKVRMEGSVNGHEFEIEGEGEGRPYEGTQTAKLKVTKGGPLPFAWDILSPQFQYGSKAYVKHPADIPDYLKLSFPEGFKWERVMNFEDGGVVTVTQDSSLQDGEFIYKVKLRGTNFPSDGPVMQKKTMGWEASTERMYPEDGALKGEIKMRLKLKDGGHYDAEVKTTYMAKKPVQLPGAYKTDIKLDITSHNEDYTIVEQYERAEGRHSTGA
Description: (§1) The transfected HEK293-CLDN18.2 or HEK293-CLDN18.1 cell were resuspended in PBS with 2% BSA at density of 10\hat{ }5/well, 100 μl/well. […] Next, cells were washed 3 times by FACS washing buffer and incubated with 100 μl/well goat anti-hIgG (H+L)-FITC (1:200 dilution) at 4° C. for another 30 min. Finally, cells were washed 3 times by FACS washing buffer and analyzed by Flow Cytometry. To analyze binding to CLDN18.2 transfected cells, the RFP positive cells were used for control gating.
The target in experiment [3] is human CLDN18.2-mRFP A42S (human). Description: FACS, transfected HEK293, 10 µg/ml antibody.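 Further: antibody binding read by flow cytometry with a FITC-labelled anti-human IgG secondary, gated on RFP-positive cells, each mutant signal expressed against wild-type CLDN18.2.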
Sequence of human CLDN18.2-mRFP A42S (human) (chain, as listed by the source A42S A42S limits assumed): as the sequence (chain, as listed by the source N37D N37D limits assumed) above, with D37N, A42S counted along it
Description: as §1
The target of experiment [4] is human CLDN18.2-mRFP L69I (human). Description: FACS, transfected HEK293, 10 µg/ml antibody.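 Further: antibody binding read by flow cytometry with a FITC-labelled anti-human IgG secondary, gated on RFP-positive cells, each mutant signal expressed against wild-type CLDN18.2.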
Sequence of human CLDN18.2-mRFP L69I (human) (chain, as listed by the source L69I L69I limits assumed): as the sequence (chain, as listed by the source N37D N37D limits assumed) above, with D37N, L69I counted along it
Description: as §1
For experiment [5], the target named is human CLDN18.2-mRFP N45Q (human). As to the kind of experiment: FACS, transfected HEK293, 10 µg/ml antibody.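 Further: antibody binding read by flow cytometry with a FITC-labelled anti-human IgG secondary, gated on RFP-positive cells, each mutant signal expressed against wild-type CLDN18.2.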
Sequence of human CLDN18.2-mRFP N45Q (human) (chain, as listed by the source N45Q N45Q limits assumed): as the sequence (chain, as listed by the source N37D N37D limits assumed) above, with D37N, N45Q counted along it
Description: as §1
Experiment [6] deals with T2, human CLDN18.2-mRFP1, wild-type (human).
T2 construct: human CLDN18.2 (amino acid 1-261) fused to mRFP1 (amino acid 1-225), transiently expressed in HEK293 cells; also called wild-type human CLDN18.2-mRFP
As to the kind of experiment: FACS, transfected HEK293, 10 µg/ml antibody.
Description: as §1

In experiment [7] the target is human CLDN18.2-mRFP G65P (human). As to the kind of experiment: FACS, transfected HEK293, 10 µg/ml antibody.
Sequence of human CLDN18.2-mRFP G65P (human) (chain, as listed by the source G65P G65P limits assumed): as the sequence (chain, as listed by the source N37D N37D limits assumed) above, with D37N, G65P counted along it
Description: as §1
The target of experiment [8] is human CLDN18.2-mRFP E56Q (human). Description: FACS, transfected HEK293, 10 µg/ml antibody.
Sequence of human CLDN18.2-mRFP E56Q (human) (chain, as listed by the source E56Q E56Q limits assumed): as the sequence (chain, as listed by the source N37D N37D limits assumed) above, with D37N, E56Q counted along it
Description: as §1
Experiment [9] has as its target human CLDN18.2-mRFP Q47E (human). Description: FACS, transfected HEK293, 10 µg/ml antibody.
Description: as §1
Experiment [10] addresses human CLDN18.2-mRFP Q29M (human). Description: FACS, transfected HEK293, 10 µg/ml antibody.
Description: as §1
The target of experiment [11] is T1, human CLDN18.2. As to the kind of experiment: cell-based or functional assay.
The target of experiment [12] is T1, human CLDN18.2. Description: flow cytometry on MKN45-CLDN18.2-high cells; unit taken from the concentration axis.
Description: (§2) Log-phase HEK293-CLDN18.2 and NUGC4 cells were re-suspended in PBS. After 3× cell wash by using FACS washing buffer (PBS+2% FBS), 100 μl/well diluted hybridoma Abs with a range from 400 nM to 0.002 nM were added into each well for incubation at 4° C. for 30 min. Again, cells were washed 3 times by using FACS washing buffer and then incubated with 100 μl/well goat anti-mIgG-FITC (1:400 dilution) at 4° C. for another 30 min. After a final 3× wash using FACS washing buffer, cells were analyzed by flow Cytometry.
In experiment [13] the target is T1, human CLDN18.2. Description: FACS, NUGC4 cells.
For experiment [14], the target named is T3, human CLDN18.1 (human, UniProt P56856 1-261).
T3 construct: on HEK293-CLDN18.1 cells; also called Claudin-18 splice variant 1; NP_057453.1
T3 sequence (P56856 whole entry, canonical isoform): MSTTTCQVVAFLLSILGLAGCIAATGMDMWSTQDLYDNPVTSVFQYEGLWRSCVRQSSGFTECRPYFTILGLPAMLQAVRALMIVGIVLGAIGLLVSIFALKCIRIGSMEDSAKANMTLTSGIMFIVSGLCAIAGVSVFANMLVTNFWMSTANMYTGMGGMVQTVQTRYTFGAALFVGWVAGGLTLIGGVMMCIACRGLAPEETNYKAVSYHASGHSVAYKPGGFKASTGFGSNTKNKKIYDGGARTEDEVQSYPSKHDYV
Description: flow cytometry on HEK293-CLDN18.1 cells, one antibody concentration.

Experiment [15] concerns the target T1, human CLDN18.2. Description: FACS, MKN45-CLDN18.2-high cells.
Description: as §2
In experiment [16] the target is T1, human CLDN18.2. Description: flow cytometry on HEK293-CLDN18.2 cells; unit taken from the concentration axis.
Description: as §2
The target in experiment [17] is T1, human CLDN18.2. As to the kind of experiment: flow cytometry on BxPC-3-CLDN18.2 cells (y axis printed as Luminescence); unit taken from the concentration axis.
Experiment [18] has as its target T1, human CLDN18.2. As to the kind of experiment: flow cytometry on KATOIII cells; unit taken from the concentration axis; the fitted value lies far above the highest concentration tested (about 30 ug/ml); the curve rises only from about 2 ug/ml on, to Mean FITC-A about 43000.
Experiment [19] deals with T1, human CLDN18.2. Description: FACS, HEK293-CLDN18.2 cells; binds: FACS on overexpressing HEK293-CLDN18.2 cells.
Experiment [20] concerns the target T1, human CLDN18.2. Description: flow cytometry on SNU-601 cells; unit taken from the concentration axis; the fitted value lies far above the highest concentration tested (about 30 ug/ml); the curve rises only from about 2 ug/ml on, to Mean FITC-A about 35000.
For experiment [21], the target named is T1, human CLDN18.2. Description: flow cytometry on MKN45-CLDN18.2-medium cells; unit taken from the concentration axis; the fitted value lies far above the highest concentration tested (about 60 ug/ml); the curve lies on the isotype control up to about 7 ug/ml and reaches Mean FITC about 4200 at about 60 ug/ml.
Description: as §2
The target of experiment [22] is T1, human CLDN18.2. Description: flow cytometry on MIA PaCa-2-CLDN18.2 cells (y axis printed as Luminescence); unit taken from the concentration axis.
Experiment [23] has as its target T1, human CLDN18.2. Description: KinExA, NUGC4 cells; binds: Kd on NUGC4 gastric cells (endogenous CLDN18.2), affinity assay, not FACS EC50.
In experiment [24] the target is T4, human FcγRIIIa-V176 (human, UniProt P08637 17-208). Description: cell-based or functional assay.
T4 sequence (P08637 17-208 F176V limits assumed): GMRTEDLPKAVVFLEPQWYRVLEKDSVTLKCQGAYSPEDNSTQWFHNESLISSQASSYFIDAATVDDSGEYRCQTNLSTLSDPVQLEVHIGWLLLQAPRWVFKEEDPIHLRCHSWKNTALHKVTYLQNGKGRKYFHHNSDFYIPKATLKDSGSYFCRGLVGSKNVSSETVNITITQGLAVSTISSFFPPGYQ
Experiment [25] concerns the target T5, Cyno FcγRIII-his (cyno, UniProt Q8SPW2 17-208).
T5 construct: also called cyno FcγRs
Description: ELISA: antibody coated, Cyno FcγRIII-his titrated, anti-His-HRP; the concentration axis is that of the receptor.
Description: (§3) After blocking and washing, the serial diluted (5 g/ml˜0.02 μg/ml) FcγRs labeled with His-tag were added and incubated for 1 h. Then anti-His-HRP and TMB were added for detection of FcγR binding at OD450 nm.

The target of experiment [26] is T6, human FcγRI (human, UniProt P12314 16-288).
T6 construct: also called hFcγRI-his
T6 sequence (P12314 16-288 limits assumed): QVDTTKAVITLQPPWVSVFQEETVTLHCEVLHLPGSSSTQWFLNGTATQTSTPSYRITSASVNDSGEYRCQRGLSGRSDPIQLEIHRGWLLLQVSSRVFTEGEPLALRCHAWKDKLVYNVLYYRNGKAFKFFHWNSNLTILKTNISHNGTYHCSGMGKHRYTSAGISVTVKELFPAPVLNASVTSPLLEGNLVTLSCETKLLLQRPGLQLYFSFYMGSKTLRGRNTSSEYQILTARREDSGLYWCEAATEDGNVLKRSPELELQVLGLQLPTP
As to the kind of experiment: ELISA: antibody coated at 1 ug/ml, hFcγRI-his titrated, anti-His-HRP; the concentration axis is that of the receptor. Background: In an ELISA, binding on a coated surface is turned into a signal by an enzyme label.
Description: as §3

The target of experiment [27] is T7, FcγRIV-his (Mus musculus (Mouse), UniProt A0A0B4J1G0 21-203).
T7 sequence: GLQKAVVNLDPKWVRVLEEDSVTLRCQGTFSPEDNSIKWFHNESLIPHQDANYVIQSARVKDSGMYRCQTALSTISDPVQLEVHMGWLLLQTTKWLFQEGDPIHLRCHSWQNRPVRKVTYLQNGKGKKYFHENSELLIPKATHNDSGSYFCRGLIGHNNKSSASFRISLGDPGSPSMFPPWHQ
Description: ELISA: antibody coated at 1 ug/ml, Mouse FcγRIV-his titrated, anti-His-HRP; the concentration is that of the receptor.
Description: as §3

Experiment [28] addresses human C1q (human, UniProt P02745 23-245; P02746 28-253; P02747 29-245). Description: ELISA: antibody immobilised, human C1q titrated, anti-C1q-HRP; the concentration axis is that of C1q.
Description: C1q binding assay was taken following method. Two antibodies were immobilized on the plate. […] Then anti-C1q-HRP and TMB were added for detection at OD450 nm.
For experiment [29], the target named is T4, human FcγRIIIa-V176. Description: ELISA: antibody coated at 1 ug/ml, hFcγRIIIA(V176)-his titrated, anti-His-HRP; the concentration is that of the receptor.
Description: as §3
Experiment [30] concerns the target T4, human FcγRIIIa-V176. As to the kind of experiment: ELISA, antibody coated, His-tagged FcγR in solution.
Description: as §3
The target in experiment [31] is T8, human FcγRIIIa-F176 (human, UniProt P08637 17-208).
T8 construct: His-tagged (ELISA); also called hFcγRIIIA (F176)-his
T8 sequence (P08637 17-208 limits assumed): as the sequence (P08637 17-208 F176V limits assumed) above, with V160F counted along it
The experiment is described as above.
Description: as §3

Experiment [32] concerns the target T9, mouse FcγRI-his (mouse, UniProt P26151 25-297).
T9 sequence (looked up): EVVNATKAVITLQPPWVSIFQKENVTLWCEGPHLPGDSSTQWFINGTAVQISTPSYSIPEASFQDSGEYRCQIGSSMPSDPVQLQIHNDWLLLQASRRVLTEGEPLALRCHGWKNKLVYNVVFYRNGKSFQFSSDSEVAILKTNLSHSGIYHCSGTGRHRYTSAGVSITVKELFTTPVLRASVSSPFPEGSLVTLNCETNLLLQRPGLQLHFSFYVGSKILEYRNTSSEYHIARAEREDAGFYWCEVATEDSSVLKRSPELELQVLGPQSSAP
As to the kind of experiment: ELISA: antibody coated at 1 ug/ml, Mouse FcγRI-his titrated, anti-His-HRP; the concentration axis is that of the receptor.
Description: as §3

The target in experiment [33] is T10, mouse FcγRIIB-his (mouse, UniProt P08101 30-207, limits assumed).
T10 sequence (looked up): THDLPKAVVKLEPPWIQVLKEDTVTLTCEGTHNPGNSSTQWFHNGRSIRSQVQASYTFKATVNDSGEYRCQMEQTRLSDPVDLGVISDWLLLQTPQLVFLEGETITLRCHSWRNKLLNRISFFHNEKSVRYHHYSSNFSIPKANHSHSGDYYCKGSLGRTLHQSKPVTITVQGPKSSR
As to the kind of experiment: ELISA: antibody coated at 1 ug/ml, Mouse FcγRIIB-his titrated, anti-His-HRP; the concentration axis is that of the receptor.
Description: as §3

In experiment [34] the target is T11, Human FcRn (FCGRT&B2M) Protein (human, UniProt P55899 24-297; P61769 21-119).
T11 construct: also called huFcRn-biotin
T11 sequence (P55899 24-297 limits assumed, chain 1 of 2): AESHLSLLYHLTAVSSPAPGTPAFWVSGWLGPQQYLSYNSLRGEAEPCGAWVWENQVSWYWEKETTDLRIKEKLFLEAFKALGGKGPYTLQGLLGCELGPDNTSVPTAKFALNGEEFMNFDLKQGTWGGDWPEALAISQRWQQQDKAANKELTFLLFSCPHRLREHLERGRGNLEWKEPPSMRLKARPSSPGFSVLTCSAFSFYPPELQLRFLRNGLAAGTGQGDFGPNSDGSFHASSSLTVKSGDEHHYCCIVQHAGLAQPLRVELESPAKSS
T11 sequence (P61769 21-119 limits assumed, chain 2 of 2): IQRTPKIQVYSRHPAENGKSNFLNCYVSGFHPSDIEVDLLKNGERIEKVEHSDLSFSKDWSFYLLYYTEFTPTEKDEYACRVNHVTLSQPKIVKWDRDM
Description: ELISA at pH 6.0: antibody immobilised, biotinylated FcRn titrated, Streptavidin-HRP; the concentration axis is that of FcRn.
Description: FcRn binding was evaluated by an ELISA method. […] Biotinylated FcRn was serial diluted in a pH6.0 dilution buffer (1 μg/ml˜0.0002 μg/ml) and then added for 1 h incubation. Next, Streptavidin-HRP and TMB were added for detection of binding at OD450 nm.

Substitutions are numbered along the chain they refer to. Names may count otherwise.

What is called EC50 is the concentration giving half of the maximal effect. Read a low EC50 as greater potency. For orientation: Kd means a measure of binding affinity in units of concentration. Higher therefore signals a looser complex. By EC50 (read off the curve) is commonly meant the concentration giving half of the maximal effect.

T5 sequence (Q8SPW2 17-208 limits assumed): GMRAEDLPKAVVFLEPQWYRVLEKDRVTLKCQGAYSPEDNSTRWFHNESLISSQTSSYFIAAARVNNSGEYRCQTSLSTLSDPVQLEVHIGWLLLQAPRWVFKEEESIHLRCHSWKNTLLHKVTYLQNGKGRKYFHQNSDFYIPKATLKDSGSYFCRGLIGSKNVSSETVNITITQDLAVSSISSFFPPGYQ
Sequence of human C1q (P02745 23-245, chain 1 of 3): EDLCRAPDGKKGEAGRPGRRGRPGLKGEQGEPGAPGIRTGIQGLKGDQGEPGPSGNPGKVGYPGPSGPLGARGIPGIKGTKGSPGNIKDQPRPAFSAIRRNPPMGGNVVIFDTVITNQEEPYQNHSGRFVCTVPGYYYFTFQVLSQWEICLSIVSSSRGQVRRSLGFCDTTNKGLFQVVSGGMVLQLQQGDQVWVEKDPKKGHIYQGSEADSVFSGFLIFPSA
Sequence of human C1q (P02746 28-253, chain 2 of 3): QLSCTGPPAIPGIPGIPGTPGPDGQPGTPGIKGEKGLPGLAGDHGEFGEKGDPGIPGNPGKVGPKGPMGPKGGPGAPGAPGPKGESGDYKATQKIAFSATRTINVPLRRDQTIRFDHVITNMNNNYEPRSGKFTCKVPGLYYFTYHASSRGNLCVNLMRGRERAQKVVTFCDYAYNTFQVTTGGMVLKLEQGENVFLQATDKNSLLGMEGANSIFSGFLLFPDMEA
Sequence of human C1q (P02747 29-245, chain 3 of 3): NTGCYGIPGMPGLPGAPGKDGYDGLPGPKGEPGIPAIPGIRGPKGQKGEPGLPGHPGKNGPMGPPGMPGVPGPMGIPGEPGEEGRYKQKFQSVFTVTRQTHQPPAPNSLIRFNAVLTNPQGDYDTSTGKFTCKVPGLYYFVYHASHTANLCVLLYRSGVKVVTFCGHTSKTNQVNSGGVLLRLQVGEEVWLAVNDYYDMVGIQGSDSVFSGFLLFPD
Sequence of human CLDN18.2-mRFP Q47E (human) (chain, as listed by the source Q47E Q47E limits assumed): as the sequence (chain, as listed by the source N37D N37D limits assumed) above, with D37N, Q47E counted along it
Sequence of human CLDN18.2-mRFP Q29M (human) (chain, as listed by the source Q29M Q29M limits assumed): as the sequence (chain, as listed by the source N37D N37D limits assumed) above, with Q29M, D37N counted along it

B1: 18B10-C (antibody, human IgG1, V domains shown)
VH: EFQLQQSGPELEKPGASVRISCKTSGYSFTGYNMNWVKQSNGESLEWIGNIDPYYGGTSYNQKFKGKATLTVDKSSSTAYMQLKSLTSEDSAVYYCARMYHGNAFDYWGQGTTLTVSS
VL: DIVMTQSPSSLTVTAGEKVTMSCKSSQSLLNSGNLKNYLTWYQQKPGQPPKLLIYWASTRKSGVPDRFTGSGSGTDFTLTLSSVQAEDLAVYYCQNDYSYPLTFGAGTKLELK
notes: also called chimeric 18B10
B1: the EC50 came out at 0.96 µg/mL in experiment [1], 1.87 µg/mL in experiment [12], 7.8 µg/mL in [13] and 1.35 µg/mL in experiment [16]. In addition, the “binding percentage vs wild-type CLDN18.2” value in [2] is 106%; in [3], 69.2%; in experiment [4], 112%; in experiment [5], 92%; in experiment [6], 100%; in experiment [7], 118%. Also, the “binding percentage vs wild-type CLDN18.2” value in experiment [8] amounted to 6.57%; in [9], 109%; in experiment [10] it was 83.5%. Besides, the “ADCC reporter assay (Jurkat-NFAT-luc-FcγRIIIA-V176), MKN45-CLDN18.2-medium target cells” value in [11] was 50 fold. Moreover, the “ADCC reporter assay, NUGC4 target cells” value in [11] is more than 40 fold. Also, the binding result in experiment [14] is listed as “no binding (tested: 10 ug/ml)”. In addition, in experiment [15], the “fold increase in binding potency vs IMAB362” value is approximately 2 fold.

B2: IMAB362 (antibody, human IgG1, V domains shown)
VH: QVQLQQPGAELVRPGASVKLSCKASGYTFTSYWINWVKQRPGQGLEWIGNIYPSDSYTNYNQKFKDKATLTVDKSSSTAYMQLSSPTSEDSAVYYCTRSWRGNSFDYWGQGTTLTVSS
VL: B1 VL with L35Q, K61E, L81I, L102F, A106S, L112I
notes: chimeric IgG1 benchmark antibody, expressed according to US2009169547A1; also called IMAB362-analog; IMB362
For B2, the EC50 in [17] is 2.47 µg/mL; in experiment [18] it was 18000 µg/mL; in [19], 0.42 µg/mL; in [20] it was 15300 µg/mL; in [12], 4.05 µg/mL; in [21] it was approximately 16800 µg/mL. In experiment [22], this molecule returned an EC50 of 0.66 µg/mL. Further, the “binding percentage vs wild-type CLDN18.2” value in [6] worked out at 100%. In experiment [11], the “ADCC EC50 (PBMC effectors, PI staining), NUGC4 cells” value stood at 0.54 µg/mL. This molecule also returned a Kd in [23] of 2.58 nM.

B3: 18B10-HaLa-L235V/F243L/R292P/Y300L/P396L (antibody, human IgG1, kappa)
heavy: QVQLVQSGAEVKKPGASVKVSCKASGYTFTGYNMNWVRQAPGQGLEWMGNIDPYYGGTSYNQKFKGRVTMTIDKSTSTVYMELSSLRSEDTAVYYCARMYHGNAFDYWGQGTTVTVSSASTKGPSVFPLAPSSKSTSGGTAALGCLVKDYFPEPVTVSWNSGALTSGVHTFPAVLQSSGLYSLSSVVTVPSSSLGTQTYICNVNHKPSNTKVDKKVEPKSCDKTHTCPPCPAPELVGGPSVFLLPPKPKDTLMISRTPEVTCVVVDVSHEDPEVKFNWYVDGVEVHNAKTKPPEEQYNSTLRVVSVLTVLHQDWLNGKEYKCKVSNKALPAPIEKTISKAKGQPREPQVYTLPPSRDELTKNQVSLTCLVKGFYPSDIAVEWESNGQPENNYKTTPLVLDSDGSFFLYSKLTVDKSRWQQGNVFSCSVMHEALHNHYTQKSLSLSPGK
light: not shown
notes: Fc variant of 18B10-HaLa; also called 18B10-HaLa-VLPYLL; copies: 2 + 2
Consider B3, for which the “ADCC reporter EC50, NUGC4 targets, Jurkat-NFAT-luc-FcγRIIIA-V176 effectors” value in experiment [24] came to 0.0097 µg/mL. Further, the binding result in experiment [25], in [26], in [28], in experiment [32], in [33] and in experiment [34] was “binds” in each case. In addition, the “EC50 (read off the curve)” value in experiment [27] was approximately 0.06 µg/mL; in experiment [29], approximately 0.2 µg/mL. The “fold increased binding vs 18B10-HaLa wild-type” value in experiment [30] and in experiment [31] was 10 fold throughout.
